Source: patent publication US8114627

Experiments:
[1] = biological target: [Leu1, Thr2]-63-desulfo-hirudin (Lepirudin (Refludan)) (UniProt P01050)
[2] = biological target: sulfo-hirudin ([Leu1, Thr2]-hirudin with sulfotyrosine at position 63, expressed in E. coli) (UniProt P01050)

human α-thrombin (Diapharma)
cleavage of the fluorogenic substrate by thrombin (fluorescence intensity over time) [1]: Cleavage of the fluorogenic substrate by thrombin, whose activity is inhibited to different degrees by sulfo-hirudin and desulfo-hirudin
cleavage of the fluorogenic substrate by thrombin (fluorescence intensity over time) [2]: Cleavage of the fluorogenic substrate by thrombin, whose activity is inhibited to different degrees by sulfo-hirudin and desulfo-hirudin
